# Laboratory results published in the NTF2 design screens of Basanta et al. (2020).
# Assay: protease stability score; higher = more stable; yeast display proteolysis, trypsin and chymotrypsin;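 further: relative to predicted unfolded state with 0 unfolded-like and 1 meaning tenfold more protease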
sequence,measurement,value
DEEHEKLYQDLEYWVKMVRTGDEDSHLEYADPDVRLDVNGQQFIGREEFTRFFRTLSRELGLDNINFRIKDIRNVGDKIDIDGHREINGRRVRIILVAWKFNGRWYLHEERIR,protease stability score,1.39
DEEHELLEHWLRLFEEAFSTGDWRIMARLIDPNARLEIGEKDHHGREELIKFMLRVDHIDDFRLHEKDRTEIDGRLRMNGNNEVQGTVNGQKRNITIDIHIVVVKVDGRWFVERIRIR,protease stability score,1.3
DEEHELTRKVLTEMWEIFMTGDWKRWHELLDPHVRFVYVQGEFEDVHHGREEVKRLFDKLLKDLGFKHSELTDTRLVGNKAVIDGTIHVGDKIYDFHLNVLVVNGKVKTIEVEIREK,protease stability score,1.94
DEEHEMAKRASEKFVKDWVTGNFEVLRENLDPHVRLDINGVKVHGRELVWHYIAKRLRFMGVDHTEMEVHHREVQGNKLITDMEERIHVGDYHEERRVVLISQKINGKWLVKSIHEE,protease stability score,1.56
DEEHEMIQTHLRLFHEALLTGDEEELHRLLDPNVRVDIGDKHLHGREVVIHWMRQIRVKHLDLDLDHERSVNGRVDIKGTLRSDVIINGQRHKTSHTLHFHATKINGRWFIKEYIVD,protease stability score,2.06
DEEHEQLERLARDYMHSTETGDEESIRRFFDPHTRYDIDGKESHGWEMIKHWMEEWRIDSVTIHSIHRINGVAHIDVTVHGEIGDKQTTFRVIIDLVIVNGKVHEIRIIFE,protease stability score,-0.086
DEEHEVLRRMVERIREMEKTGDWERYATMADPNTRVDVNGVELHGMENVAFWFWLHLYRHGIEIKDIRVRDIKVQGEKYQEDGELYGHINGQTTILEVHLEITFVNGRIHSEKISIK,protease stability score,1.25
DEEHEWAQLVIQLFFEALHTGDEKTLHELMDPEVKVNVDGRELHGREEVMEWFEELIRQYKNAKIHLHIHRVEYVGNKVIIRGELHFRYGDKEERIDRILHVLKVDGRWLIREIEHR,protease stability score,1.51
DEEHEWAQRIIEYLSKNEKTGDEDSARELADPNMRFEIDGVEIVGMETWVRRFLELRVEDLTMDVEHIHVQGNFVHIQTRLELHGHINGRRTRYTTTMRLFVLKINGKWIITHVKYE,protease stability score,1.45
DEEHEWMHIMMELLLRAFETGDPDLFEHLADPNTRLQIGDKTIHGRTKVSTWLHREIRRADHLEIRLREYDYQGDKLEMKTELIIQQGDKQVQLETRVIIIKINGRWFLESIEIN,protease stability score,1.23
DEEHHDARRIIEEFITLLKTGDEENLDEYLDPNVRIEFNGRDLHGMEWFLHFLREIRFRDDDHKRIQVKVINGQVHILIKMHVDGVWDGRRKISDVHLHFTVVKVDGRWRFTSIHVHIE,protease stability score,1.35
DEEHHDLQEFFERLKRHWETGDWKEITKNFDPNVKERYGDFEVHGREEAIRKAKEMRYNDMDIRHRRVIDGRAYLHTEMDGNFDGRERRFEVEMIITKIDGVWRIKHVTFK,protease stability score,1.06
DEEHHELHKMFEEMINKWITGDWEYIVKLLDPHVKLEVGDKRHHGWKQYVLFLEEFMREFKNATIKIHDVTHVDGVVIINMKFHFNGKDIDTTLYLHIVNGRLHDERIEVE,protease stability score,1.74
DEEHHLAKELVRLLQEALSTGDEDEVKRLIDPDYRLIIGEFIFHGREDLERWLHHARVSVKDSHLRHVKVQGDKVEINGERNLIVIIDGKKIERKHRLHLIIIKVDGRWFMESEKYD,protease stability score,1.01
DEEHHNAREMLKLFLDFMQTGDWESHLEMADPNVKVIIDGQEFIGRESSERLIREIRIKRHHLEEERIEVQGDKAIVRLRGRRDGNVNGVETETEVHIRIHFKKIDGRWVMTSVHIEVV,protease stability score,1.75
DEEHKELRRAWEQLIHDIKTGDEESFKRLADPDVQVRVGDKVEHGREATERWLRQVDHIKHFEEKRIHIYDGRVELKGRVTGVINGRELNTEIDFEIVYIDGKLHRIRIHFR,protease stability score,1.09
DEEHKEREDVAREIITLLLTGDEEIWLSMMDPHTRININGKYAIGRENIEEIIKDLLRRIPNIRIIMQDMKIQGDKVTIHGIHNVNGREHEWRVHIISVNGRIKSIEVRIH,protease stability score,1.47
DEEHKETEDIAKYFWERFLTGDWKTFKEFADPHVKIDVDGVEHIGREEASKLMRDWDRRFKNVRHTERHHDVIDGKFELHGESNINGVHIKLDVRIVIVDGRLHSVHVEIDRR,protease stability score,1.26
DEEHKEVREHIETSIQALRTGDWELLSKRMDPHVRVIVGDKHLHGREEAHKMLEEWFKRMGIDHFHIKSIEIQGDKTDVEGHMYFNGVSRDTRLYEVWVNGRLKSLTIEMR,protease stability score,0.626
DEEHKFQHDISIFFMKLIETGDEDTLIDMADPNARSEINGKEVHGMEDAYKWWIDFLRQMGIKHLHVETFHVVNGQTKVHSRVHVGDKEFEVEIRLIIINGRLHEIEIIVRTR,protease stability score,1.21
DEEHKHLREILRLMIEWLRTGDWEKIERNADPTTKMDYGEFKTHGREEYYRALMILIRHLGVDHITLHDFTFIDGKIYLDLIIHVNGQHERVTLEMHFVDGVIKRHHVREK,protease stability score,0.566
DEEHKIIRDFADEFWHWHLTGNFEEIAKNMDPNVRYEIRIGDKVILHIGMEDVERYLREEIHKFKNLTEDLESKHVVGNKLHLDARLNWNGKTVDIHIEIVVVNGRFKTVTIHIR,protease stability score,1.36
DEEHKLAEHYLRIWIHALITGDFHKILHLMDPNVRNEVGDKEVHGREEWEKFLKRVKNVVIEHVELDHLLVVDGRVHIRVTLHMSYGDKTEDHDIHVLMHKVDGRWYIKSIHVK,protease stability score,2.43
DEEHKLQEDFLKALIRSILTGDWEFWKRLLDPHVRMNINGVYVHGRDEAANILIKDLERRGMEIKTITIEDRRHYDGVLEVKLRIQTTIDGQEHETSLEFHVKKYDGRWIIEHITVR,protease stability score,2.19
DEEHKTSYKALEQLIRVLRTGDERLMSELADPHVRMDFDGRRHHGRESMKREFLELGIDHVHLDRWNLIGNKVLSDGHMRFDGRSMRVEIIAYKVDGRWVLEEVRFE,protease stability score,0.03
DEEHNHFERLTRWFEHVWRTGNEEFFRELADPNARMRINGQEYVGREELVRTLHEWLKILGAKHHRKKDEEIQGEKVILIGEVDIDGRTLRHHVHFRIINGRLHSLEVEVK,protease stability score,1.3
DEEHNLSEEAMRHFFETVRTGDEELIYRLLDPNARVQINGKEHHGREDVWEFLWRNYMRADHVEVKVHHVEVQGEKVIIDLRLHVTINGKDLEIRLVLIIHKYNGRWHITELRIL,protease stability score,0.555
DEEHQHSLARTLATALRTGDPEKMKDLADKDVKVVVGDKHIKGRKDAKKWAKDWRDRYDHAQVDDVNVQGENVRIVMNVEVDGHNVVVVMTAIIDGDQVKNVKVTARNEEQEKKMKK,protease stability score,0.252
DEEHQSLRHIAEILLESWETGDFERVWKFADPHTRVDFNGREKHGMHHVHEMFHILGIDHIELRHMEVINGRINSDGHVEVNGQRHRMHLTIFVFDGRLTEVRFDYE,protease stability score,2
DEEHRDFKHLIKIFDDSVETGDEETFHKLLDPDVRIRVGDWQLVGREEARRVFQQIRIIIHSNRIHDVKVINGKIHADTHVDFRIEVGDKTVRERSRTIIYLDKVNGVWTIHSIEFK,protease stability score,1.08
DEEHRDLEHFMEIYEDALRTGDEKIIKFLLDPHVRFKQGNKQEHGWEAVYRYLHRFDVVKDVRFRIRSLEIQGDFLIVHYEVRYRGEINGQEHHVTIEYVIIVKKIDGKWLVHEVSIL,protease stability score,1.62
DEEHRDSEEMTRKFLHNFITGNEHILEDLLDPHVRTDVDGREFIGWELAFKAFREFLERLGFDHIRHRDMKLHVVGNKVTSVITNNIQVGDKEHELRIILINRKIDGKWSVTEVRIHVK,protease stability score,1.25
DEEHREAREAVEDDLRELITGNWDMLRRNLDPRMRLNIDGQDIHGRESVHKRWVELMEELGIDHLELHRVDVIDGRIHTDGHERVDGKHIKVLIVAVKINGRWIIKRLHVH,protease stability score,0.675
DEEHREMRDVLDELLEAFHTGDEHSLNRYADPHARHHVNGKEYHGRELMVKIWMDLGIDHVHLEEIHLQGEKLHMDTRVTVNGRTIKVTIIILKINGRWKLTHVEIK,protease stability score,0.958
DEEHRHAEEILKDLQKALITGDEHNMMNLLDPHVRVDFDGVEIIGRELWVELFRTLKKELGITRFDIHLHTHDMKIFDGRVTLDTRLHLHYNGRTEERRVIIYVTKVNGRWHIESMEIK,protease stability score,1.82
DEEHRHAHWLLNVLTKAMITGDESLMEHLLDPNARLIQGEFELVGRERIIDWFHHIRTHEVRIHVEHFDVVNGKAIIFGHVTVDGTVNGQRREFRFDQTYFSSKIDGKWVIESLEME,protease stability score,1.3
DEEHRKLKKFVRESMEDHRTGDEDRRNELLDPNVRIEIGDKTFHGREDDKKWLEEFGVDHVEIRIRHIDIIGNKAIIDSELRIFVNGRILEFDTIIYAEKYDGRWVHHSVQVR,protease stability score,0.077
DEEHRLSHEIEKHLEDDLRTGDFHHFIKQVDPNTRVRYGDKRLHGMHAVIWTLEHLGIDVFHLTDSHTFENRVVVHVRLEQGDFTMSVEVHATKVNGRWIVTKINFHHS,protease stability score,0.023
DEEHRSSHHAVEVQFRVLHTGDFHDLRRQLDPDVKFHIDGVNDHGREVFEERVRELGIKHLLIEDHHVEIQGEWAHLRMKGLMEINGKEIKLHIRYLLLKVNGRWSAHTVSIHLE,protease stability score,1.36
DEEHRVIHNAVRILLEAIRTGDEETLRRLLDPHTRIEIGDKELHGWKDAIKFERDVWEILGIDHSEIRIKHVRIIGDKIEVEGEIINYVNGKEIVLDTNLIMRKIDGRWVFKSRKVN,protease stability score,1.23
DEEHTDITRATEHLIDSMETGDEDRLQELFDPNTLMRINGRRHHGREDMREFIRELVEKVKNLKIEIDHIDVVGNKVRLEVTLRVNGQEISTHIIIVKVDGRWIVKRMHIN,protease stability score,0.667
DEEIEEARHVFEEVIHNIQTGDEDAYETLMDPNVRLQVGEKKFHGRREVKEWLHEIRVRRYEIRPKDSDVIGEKVIVHGRVRIDGHYNGRDIDLEVQVHRIIVKINGRWFVHEVRIG,protease stability score,1.28
DEEIEMLTKLAELFIRLWLTGNEDILESMADPRVRLEINGREHHGRDIVRKIFEHDRHHMRLESIQLHDRRVYNGRADLHGTQYGEINGKRETYTVRLILVIINGRIETVKVIVE,protease stability score,1.14
DEEKDEVREIAERIFHNLRTGDEEKLKHLIDPHVRFEYGDKEHHGWEEMVHFLREWRIHHIHIRDIKVYDGVAHVNGEVDGKFNGRRFRSDTWVIIVTINGRVKQISIQIN,protease stability score,1.33
DEEKDHAQMFLELWRHFLETGDEEFLERLADPHVKSLINGVEHHGREIMYKYLIKFLRRLGVDRVHTEVRIHHMHVINGVAFFDGTLHLNFNGQTYSRRVEIIVYKVNGRWHLHEFRIE,protease stability score,1.74
DEEKDIIERMSKMITRSWETGNEDWLSELADPDVKFHINGRDHHGMEEMARLWLELVLKLGVKHQTIEHLSIQGDKVHIHSRSDFNGRHMKLEIRVLLVNGKIRSVTVHLHVD,protease stability score,0.633
DEEKDIMERIADLMLELSETGDEHTYKRMADPNVRLRFNGVDIHGMDNISKYLKEFFERIDHVEFEIKDFRSFDGRYNNRGLLILNVGDKRIIIDITIRVEVVNGRVKERQVDID,protease stability score,0.749
DEEKDIMNEWWKRIFNVFHTGDEREHDKMLDPNARFDIGDKTLHGMDDFRRFLHRADHISHFTEHHVEVQGEKLVWEGTYDGEFNGVERRFHTHEQNIIINGKVKRVFFQIR,protease stability score,0.834
DEEKDLTEKIAHEIVHNYMTGDFDRFIELADPNVRFIIGDKIYHGREQLLTVLEHWRQEWRLSHVRLDEFEIQGDKVILHTTMNIKYGDKRIDVETEIKIIIINGRIRDWTIDRR,protease stability score,1.42
DEEKEDAYRNAELWIKSINTGDEDVLTDLLDPHARIDIGDKKLHGMESFTKLYRDLGFRIKDFHLKDIRIYGEKIEIHGIIHFEQGDKEHNEDTTIILLKVNGKWIIKRLRVN,protease stability score,1.5
